Source: patent US20180208648A1 (SCHOLAR ROCK, published 2018)
Substitutions are numbered along the chain they refer to.

B1: GDF11 Inh-2 (antibody, V domains shown)
VH: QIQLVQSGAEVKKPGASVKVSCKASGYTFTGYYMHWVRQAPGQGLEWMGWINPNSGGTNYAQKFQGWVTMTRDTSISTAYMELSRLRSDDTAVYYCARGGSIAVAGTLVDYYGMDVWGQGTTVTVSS
VL: DIQMTQSPSSLSASVGDRVTITCQASQDISNYLNWYQQKPGKAPKLLIYDASNLETGVPSRFSGSGSGTDFTLTISSLQPEDVATYYCQKYSTAPLTFGGGTKVEIKR
notes: also called Clone GDF11 Inh-2
B2: GDF11 Inh-4 (antibody, V domains shown)
VH: QVQLVQSGAEVKKPGASVKVSCKASGYTFTSYGISWVRQAPGQGLEWMGWISAYNGNTNYAQKLQGRVTMTTDTSTSTAYMELRSLRSDDTAVYYCARTPPLWFGEYGAFDIWGQGAMVTVSS
VL: B1 VL with E81D, V83F, K90Q, Y91S, S92Y, A94T, L96I, G100Q, K103R, V104L
notes: also called Clone GDF11 Inh-4

Columns and labels:
human proGDF11 = target: T1, human proGDF11 (human, UniProt O95390 25-407, biotinylated (NHS-PEG4-Biotin), site not stated); experiment: BLI (ForteBio Octet)
T1 construct: Dimeric complex; also called hu proGDF11; GDF11 prodomain complex
T1 sequence: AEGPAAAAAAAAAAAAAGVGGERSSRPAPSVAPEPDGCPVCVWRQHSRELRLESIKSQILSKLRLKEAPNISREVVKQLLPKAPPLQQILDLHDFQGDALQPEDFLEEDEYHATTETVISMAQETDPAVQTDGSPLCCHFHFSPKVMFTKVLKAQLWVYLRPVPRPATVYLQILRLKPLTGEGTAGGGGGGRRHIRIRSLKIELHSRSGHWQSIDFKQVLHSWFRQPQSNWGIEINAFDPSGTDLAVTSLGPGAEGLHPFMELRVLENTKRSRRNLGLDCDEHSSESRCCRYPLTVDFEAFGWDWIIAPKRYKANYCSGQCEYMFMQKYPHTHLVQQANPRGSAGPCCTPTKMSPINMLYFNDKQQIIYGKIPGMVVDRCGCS

murine proGDF11 = target: T2, murine proGDF11 (mouse, UniProt Q9Z1W4 25-405, biotinylated, site not stated); experiment: BLI (ForteBio Octet)
T2 construct: also called mu proGDF11
T2 sequence: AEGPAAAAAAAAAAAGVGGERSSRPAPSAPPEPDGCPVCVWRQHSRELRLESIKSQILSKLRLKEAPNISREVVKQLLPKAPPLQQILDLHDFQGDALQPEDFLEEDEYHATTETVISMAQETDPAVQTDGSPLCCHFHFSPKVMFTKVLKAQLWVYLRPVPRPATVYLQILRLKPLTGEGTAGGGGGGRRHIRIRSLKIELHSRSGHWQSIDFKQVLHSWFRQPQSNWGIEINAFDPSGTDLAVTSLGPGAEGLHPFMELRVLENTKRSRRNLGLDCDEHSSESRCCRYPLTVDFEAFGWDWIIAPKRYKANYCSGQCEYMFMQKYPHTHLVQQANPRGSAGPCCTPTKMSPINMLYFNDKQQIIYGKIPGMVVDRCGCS

human latent GDF11 = target: T3, human latent GDF11 (human, UniProt O95390 25-407, biotinylated, site not stated); experiment: BLI (ForteBio Octet)
T3 construct: also called hu latent GDF11
T3 sequence: T1 sequence

human proGDF11 ARM8 = target: T4, human proGDF11 ARM8 (human, biotinylated, site not stated); experiment: ELISA, biotinylated antigen on neutravidin plate
T4 construct: GDF11 having the GDF8 arm domain
T4 chain: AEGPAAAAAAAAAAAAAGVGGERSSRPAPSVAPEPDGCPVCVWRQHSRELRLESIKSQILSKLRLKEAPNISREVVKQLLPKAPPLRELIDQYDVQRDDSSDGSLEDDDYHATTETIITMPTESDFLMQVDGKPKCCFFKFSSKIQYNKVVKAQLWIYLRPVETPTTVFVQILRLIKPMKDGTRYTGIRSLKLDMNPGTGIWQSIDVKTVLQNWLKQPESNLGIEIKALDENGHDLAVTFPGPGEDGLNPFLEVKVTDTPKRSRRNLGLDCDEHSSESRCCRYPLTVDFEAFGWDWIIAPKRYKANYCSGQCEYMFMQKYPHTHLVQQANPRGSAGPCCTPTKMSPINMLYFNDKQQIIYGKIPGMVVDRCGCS
Source text: (§1) Candidate clones were converted to human IgG1 format. Full-length IgG antibodies were further characterized by ELISA for binding to the human and murine pro- and latent-forms of myostatin and GDF11. Antibodies were also screened for binding to the Myostatin prodomain (SEQ ID NO: 85), proTGFDβ1 (human and murine), the mature growth factor of Myostatin (SEQ ID NO: 89), the GDF11 mature growth factor (SEQ ID NO: 90), and proActivin A (SEQ ID NO: 84). Chimeric constructs which swapped portions of the prodomains of Myostatin and GDF11 were designed and produced. For example proGDF11 arm8 (SEQ ID NO: 112) refers to GDF11 having the GDF8 arm domain, and prodomain GDF11 arm8 (SEQ ID NO: 114) refers to the GDF11 prodomain having the GDF8 arm domain. These chimeric proteins were assayed for interaction with screening antibodies by ELISA and allowed for the assessment of binding of antibodies to the ARM or straight jacket portions of the GDF11 prodomain complex. Antibodies were selected based on their cross-reactivity with pro- and latent human and murine GDF11, with no interactions with GDF8, Activin, or TGFβ proteins. Activin A is a homodimer of inhibin-beta A subunits. For example, Inhibin-beta A can heterodimerize with other proteins to produce different Activin proteins.
(§2) Enzyme-linked immunosorbent assay (ELISA) analysis is carried out to assess antibody binding. 96-well ELISA assay plates are coated with neutravidin, a deglycosylated version of streptavidin with a more neutral pH. Target proteins are expressed with or without histidine (His) tags and subjected to biotinylation. Biotinylated target proteins are incubated with neutravidin-coated ELISA assay plates for two hours at room temperature and unbound proteins are removed by washing three times with wash buffer (either 25 mM Tris, 150 mM NaCl, 0.05% TWEEN®-20, or 20 mM Hepes pH 7.5, 500 mM NaCl, 0.05% TWEEN®-20). Primary antibodies being tested are added to each well and allowed to incubate at room temperature for 1 hour or more. Unbound antibody is then removed by washing three times with wash buffer. Secondary antibodies capable of binding to primary antibodies being tested and conjugated with detectable labels are then incubated in each well for 30 minutes at room temperature. Unbound secondary antibodies are removed by washing three times with wash buffer.

[1] = target: T5, human prodomain GDF11 ARM8 (human, biotinylated, site not stated); experiment: ELISA, biotinylated antigen on neutravidin plate
T5 construct: GDF11 prodomain having the GDF8 arm domain; also called human GDF11 ARM8 prodomain
T5 chain: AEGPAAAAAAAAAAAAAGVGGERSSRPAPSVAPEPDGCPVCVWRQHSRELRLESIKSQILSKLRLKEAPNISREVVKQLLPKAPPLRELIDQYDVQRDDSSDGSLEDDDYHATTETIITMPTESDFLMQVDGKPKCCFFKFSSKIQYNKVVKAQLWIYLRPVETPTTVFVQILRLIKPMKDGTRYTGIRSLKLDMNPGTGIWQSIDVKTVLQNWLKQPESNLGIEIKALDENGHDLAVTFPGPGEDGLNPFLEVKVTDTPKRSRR
Source text: as §1, §2

human mature GDF11 = target: T6, human mature GDF11 (human, UniProt O95390 299-407, biotinylated, site not stated); experiment: ELISA, biotinylated antigen on neutravidin plate
T6 construct: Growth factor domain; also called GDF11 mature growth factor
T6 sequence: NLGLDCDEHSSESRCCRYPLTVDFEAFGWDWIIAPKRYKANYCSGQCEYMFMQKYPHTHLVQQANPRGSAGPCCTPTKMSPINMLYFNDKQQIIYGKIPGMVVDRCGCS
Source text: as §1, §2

Kd (human proGDF11) [pM] | Kd (murine proGDF11) [pM] | Kd (human latent GDF11) [pM] | binding result (human proGDF11 ARM8) | binding result [1] | binding result (human mature GDF11) | Binder
910 | 1730 | 270 | no binding | no binding | no binding | B1
1080 |  | 310 | no binding | no binding | no binding | B2
